Measured values reported in US20210101982A1.

Biological target: PD-L1 on cells (cancer cell lines expressing PD-L1; PD-L1+ aAPC/CHO-K1 cells) (human) (UniProt Q9NZQ7)
Test: cell-based or functional assay

PD-L1 on cells (cancer cell lines expressing PD-L1; PD-L1+ aAPC/CHO-K1 cells) (human), sequence (Q9NZQ7 19-290): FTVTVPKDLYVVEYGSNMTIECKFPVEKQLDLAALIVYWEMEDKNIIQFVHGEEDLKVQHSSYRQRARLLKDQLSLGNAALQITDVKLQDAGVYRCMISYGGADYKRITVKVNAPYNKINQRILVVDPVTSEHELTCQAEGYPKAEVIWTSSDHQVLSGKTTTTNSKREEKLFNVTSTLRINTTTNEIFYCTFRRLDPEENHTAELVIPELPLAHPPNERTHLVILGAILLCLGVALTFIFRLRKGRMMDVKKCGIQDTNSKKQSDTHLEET

Atezolizumab - MP-PEG8-VKG-Camptothecin (antibody)
> 3000 ng/mL: x50 (50% reduction in viability, CellTiter-Glo, 96 h) on 786-O cells | x50 (50% reduction in viability, CellTiter-Glo, 96 h) on BXPC3 cells | x50 (50% reduction in viability, CellTiter-Glo, 96 h) on KARPAS 299 cells | x50 (50% reduction in viability, CellTiter-Glo, 96 h) on L540CY cells | x50 (50% reduction in viability, CellTiter-Glo, 96 h) on MDA-MB-231 cells

Atezolizumab - vc-MMAE (antibody)
> 3000 ng/mL: x50 (50% reduction in viability, CellTiter-Glo, 96 h) on 786-O cells | x50 (50% reduction in viability, CellTiter-Glo, 96 h) on BXPC3 cells | x50 (50% reduction in viability, CellTiter-Glo, 96 h) on KARPAS 299 cells | x50 (50% reduction in viability, CellTiter-Glo, 96 h) on L540CY cells | x50 (50% reduction in viability, CellTiter-Glo, 96 h) on MDA-MB-231 cells
